# From patent publication US20100130423
# How the values were obtained:
# [1] = molecular target: adaptor protein LnK, wild type (UniProt Q9UQQ2)
# [2] = molecular target: LnK PH domain (from V5-LnK mutant constructs) (UniProt Q9UQQ2)
substance,measurement,setting,value
JAK2 V617F,"tyrosine phosphorylation of LnK (anti-phosphotyrosine immunoprecipitation, LnK Western blot)",[1],the phosphorylation levels of LnK itself are higher in 293T cells expressing JAK2 V617F compared with cells expressing JAK2 WT
same,JAK2 V671F autophosphorylation levels,[2],The LnK PH domain associates with and inhibits JAK2 V671F
